Series [1] concerns the molecule itself. Nature of the series: SEC-MALS, oligomeric state of the dominant species (D = dimer). The method, then:
(§1) FIG. 14. […] Samples were prepared in 20 mM Tris·HCl, 150 mM sodium chloride, pH 7.5.
(§2) To ascertain the oligomerisation state of dIG proteins, SEC-MALS was performed in a Dawn Helios™ II apparatus (Wyatt Technologies) coupled to a SEC Superdex™ 75 Increase 10/300 column. The column was equilibrated with PBS or buffer B at 25° C. and operated at a flow rate of 0.5 mL/min. A total volume of 100-165 μL of protein solution at 1-3.0 mg/mL was employed for each sample. Data processing and analysis proceeded with Astra 7 software (Wyatt Technologies), for which a typical dn/dc value for proteins (0.185 mL/g) was assumed.
Background: Size exclusion chromatography separates by hydrodynamic size, large species first.

Series [2] deals with the molecule itself. Nature of the series: SEC-MALS, self-association.
Series [3] deals with the molecule itself. Briefly: SEC-MALS, self-association, PBS buffer. The method, then:
FIG. 13. […] All experiments were carried out with PBS buffer.
as §2

Series [4] concerns the molecule itself. Briefly: SEC-MALS, oligomeric state of the dominant species (M = monomer, D = dimer). As for the experimental part:
FIG. 12. Biochemical characterization of the dIG8 design. a, Far-ultraviolet circular dichroism spectra (25° C., 95° C.). b, Thermal denaturation monitored at 220 nm by circular dichroism. The design denatures at temperatures above 95° C. c, SEC-MALS analysis. The protein is monodispersed and has an estimated molecular weight of 16.6 kDa, which lies between that corresponding to the theoretical monomer (10.3 kDa) and dimer (20.6 kDa). The protein includes the thrombin cleavage site and the hexa-histidine purification tag, which adds 2.3 kDa to the design. d, Chemical denaturation with guanidine hydrochloride monitored at 220 nm by circular dichroism. […] All experiments were carried out with PBS buffer.
as §1, §2

Where a chain is given by its changes, count along the chain named. Names may count otherwise.

B1: dIG7 (other)
chain: RMEVRVSNGRVEIENKSSQPGRVEVRFNGKRYEYTANPGERVEVEVSPEELKNLRVRLEYDGKTEETQYS
notes: De novo designed immunoglobulin-like domain; not shown: N-terminal thrombin-cleavable His6-tag encoded by pET-28b+
On to B1, for which the binding result in series [1] is reported as “binds”.

B2: dIG14-scdim (other)
chain: GRVEVRVEFEGDKMRVRLRNDSSTPVEVHIKVGDEKRTVTVNPGEEVEVTFSANDPHKFNRPQFTIEWGGGGRVEVRVEFEGDKMRVRLRNDSSTPVEVHIKVGDEKRTVTVNPGEEVEVTFSANDPHKFNRPQFTIEWG
notes: Two 6-stranded dIG14 domains (X1-X13) fused by a diglycine linker; also called single-chain dimer; dIG14-scdim designed with a GG linker
For the protein B2, the binding result in series [2] is “no binding”.

B3: dIG23 (other)
chain: DLEVRRKDGKFEFRNNSDKPATLEVEKDGQREEYRMNPGETIEVQAPPGQDVRFTVEMPGREYRYKLD
notes: as for B1
In the case of B3, in series [1], the binding result is “binds”.

B4: dIG22 (other)
chain: SIEVRVKGDRYEFRNNSDKPATLEVEKNGKREEYHMNPGESVEVRGPPGQDIRFEMTMDGTTYRYRLS
notes: as for B1
On to B4, for which the binding result in series [1] is recorded as “binds”.

B5: dIG21 (other)
chain: B4 chain with P47E, T57V, D59E
notes: as for B1
As to B5, in series [3], the binding result is recorded as “no binding”.

B6: dIG14 (other)
chain: MGRVEVRVEFEGDKMRVRLRNDSSTPVEVHIKVGDEKRTVTVNPGEEVEVTFSANDPHKFNRPQFTIEWGGQRQHFQHHHHHH
notes: De novo designed immunoglobulin-like domain; Built here as the crystallization construct (pET28*-dIG14); it may instead be the pET-28b+ form with an N-terminal thrombin-cleavable His6-tag; also called designed ImmunoGlobulin 14
For the protein B6, the binding result in series [1] is reported as “binds”.

B7: dIG8-CC (other)
chain: GHMRIEVRVDNGRVRVRNGTDRPCRVRVTAGGETREYTVNPGTELEVELSPEQQNNAEVEVECGNEKYRFQLG
modifications: C21 and C60 found both disulfide-linked and unbound in the crystals
notes: De novo designed immunoglobulin-like domain, double mutant of dIG8; Built as the untagged crystallization construct; also called dIG8-CC (V21C, V60C)
On to B7, for which, in series [4], the binding result was “binds”.

B8: dIG15 (other)
chain: RPKVQLELHGNKMRVRLRNDSSTPVEVHIKVGDEKRTVTVNPGEEVEVTFSTTDPRELKNATIQLHQGDQTVEYRVD
notes: as for B1
As for B8, the binding result in series [1] was “binds”.

B9: dIG8 (other)
chain: RIEVRVDNGRVRVRNGTDRPVRVRVTAGGETREYTVNPGTELEVELSPEQQNNAEVEVEVGNEKYRFQLG
notes: De novo designed immunoglobulin-like domain; also called parental dIG8; not shown: N-terminal hexa-histidine tag and thrombin cleavage site from pET-28b+ (adds 2.3 kDa)
Regarding B9, the binding result in series [4] is reported as “binds”.

Values taken from patent publication US20230279055A1 (University of Washington, published 2023).
